{"source": "paper PMC3506534", "about": "“LL-37 Induces Polymerization and Bundling of Actin and Affects Actin Structure” (PLoS ONE, 2012)", "key": {"[1]": {"tested_on": "LL-37-induced Mg-F-actin bundles", "assay": "Kinetics of dissociation of LL-37-induced Mg-F-actin bundles (light scattering)", "format": "biochemical, rabbit", "details": "200 mM NaCl; 4 µM MgF-actin bundled by 9 µM LL-37; 450 nm", "method": "Bundling of MgF-actin was followed by increase in light scattering [20]. The time course of light scattering changes was also measured in a PTI spectrofluorometer, with both excitation and emission wavelengths adjusted to 450 nm. All fluorescence and light scattering measurements were carried out at 22°C.\nThis was followed by the addition of 6 µM DNase1, cofilin, or 200 mM NaCl. Bundling and dissociation was monitored as a change in light scattering.\nThis was followed by the addition of 6 µM DNase1, 6 µM cofilin, or 200 mM NaCl (thick arrow). Bundling and dissociation were followed as an increase and decrease in light scattering, respectively, measured at 450 nm. Presented data are representative of three independent experiments."}, "Mg-F-actin [2]": {"biological_target": "T1, Mg-F-actin (Oryctolagus cuniculus, UniProt P68135)", "T1 construct": "CaATP-G-actin was prepared from acetone dried powder derived from the back and leg muscles of rabbit by the method of Spudich and Watt; from tissue; host or cells: rabbit back and leg skeletal muscle (acetone dried powder)", "assay": "Extent of Mg-F-actin bundling by low speed sedimentation", "format": "biochemical, rabbit", "details": "for EC50: read-out: concentration for half maximal bundling", "description": "(§1) CaATP-G-actin was prepared from acetone dried powder derived from the back and leg muscles of rabbit by the method of Spudich and Watt that even without gel filtration yields highly homogeneous actin in purity greater than 90%. CaATP-G-actin was stored in a buffer containing 5 mM TrisHCl, 0.2 mM CaCl2, 0.2 mM ATP, 0.5 mM β-mercaptoethanol, pH 8.0 (CaATP-G-buffer). MgATP-G-actin was obtained by incubating CaATP-G-actin with 0.2 mM EGTA and 0.1 mM MgCl2 at room temperature for 5 min. MgATP-G-actin was diluted for further treatments in MgATP-G-buffer containing 5 mM MOPS, 0.1 mM MgCl2, 0.2 mM EGTA, 0.2 mM ATP and 0.5 mM DTT, pH 7.4. MgF-actin was polymerized from MgATP-G-actin or CaATP-G-actin by 30 min incubation with 2 mM MgCl2 at room temperature. The concentration of unlabeled rabbit skeletal muscle α-G-actin was determined spectrophotometrically using the extinction coefficients E^1% 290 = 11.5 cm^−1. (The optical density of actin was measured in the presence of 0.5 M NaOH, which shifts the maximum of absorbance from 280 nm to 290 nm). Molecular masses of skeletal actin, yeast cofilin, hen-lysozyme and LL-37 were assumed to be 42 kDa, 15.9 kDa, 14.3 kDa and 4.5 kDa respectively.\nAfter addition of polycations, actin samples were centrifuged at 20,800×g at 4°C for 8 min (in an Eppendorf centrifuge). The supernatants were run using SDS-PAGE and analyzed by densitometry using the TINA 2.07d software.\nFigure 3 LL-37, scrambled LL-37 and lysozyme induced bundle formation of Mg-F-actin at low and physiological (100 mM NaCl) ionic strength. (A) Kinetics of LL-37-induced bundle formation: LL-37 (2–8 µM) was added to MgF-actin (2 µM) and bundle formation was followed as an increase in light scattering at 350 nm. Presented data are representative of three independent experiments. (B) Extent of LL-37 and lysozyme induced bundle formation: LL-37 or lysozyme (0.5–9 µM) were added to Mg-F-actin (4 µM). Samples were centrifuged at 20,800×g, for 8 min and the supernatants were analyzed by SDS-PAGE and densitometry. (C) Extent of LL-37 and scrambled LL-37 induced bundle formation: LL-37 or scrambled LL-37 (2–14 µM) were added to MgF-actin (4 µM) and bundle formation was measured as in (B). The presented data are mean and standard deviation of three independent experiments in (B) and (C)."}, "[3]": {"tested_on": "LL-37-induced Mg-F-actin bundles", "details": "gelsolin; ref [38]; cited from earlier work", "text": "(§2) Bundles of actin filaments are major contributors to the viscosity of sputum in the airways of cystic fibrosis patients. LL-37, which also has been found in the sputum, may contribute to actin bundle formation. […] Here, we studied the effect of cofilin [39] and DNase1 on the stability of LL-37-induced bundles."}, "[4]": {"details": "gelsolin; ref [30]; cited from earlier work", "text": "as §2"}, "[5]": {"details": "gelsolin; ref [6]; cited from earlier work", "text": "LL-37-induced actin polymerization and bundling was chosen as the subject of this study. LL-37 is a 37 amino acid polycationic peptide with 6 net positive charges and is the only known member in human of the cathelicidin family of host defense peptides. In addition to its antimicrobial activity, the host defense activities of LL-37 include chemoattraction, cytokine release, tissue regeneration, inhibition of immunostimulation and apoptosis,[26]. […] There, it increases the F-actin content in the cyt ..."}, "Mg-F-actin [6]": {"biological_target": "T1, Mg-F-actin", "assay": "NaCl concentration dependent stability of Mg-F-actin bundles (low speed sedimentation)", "format": "biochemical, rabbit", "details": "4 µM MgF-actin bundled by 6 µM lysozyme or 10 µM sLL-37; 10 min room temperature", "description": "as §1, with “MgF-actin was polymerized from MgATP-G-actin or CaATP-G-actin by 30 min incubation with 2 mM MgCl2 at room temperature.” left out, “Molecular masses of skeletal actin, yeast cofilin, hen-lysozyme and LL-37 were assumed to be 42 kDa, 15.9 kDa, 14.3 kDa and 4.5 kDa respectively.” left out\nAfter addition of polycations, actin samples were centrifuged at 20,800×g at 4°C for 8 min (in an Eppendorf centrifuge). The supernatants were run using SDS-PAGE and analyzed by densitometry using the TINA 2.07d software. […]\nFigure 4 NaCl concentration dependent bundling of MgF-actin by LL-37, lysozyme and sLL-37. […] The supernatants were analyzed by SDS-PAGE and densitometry. […]"}, "MgATP-G-actin [7]": {"biological_target": "T2, MgATP-G-actin (Oryctolagus cuniculus, UniProt P68135)", "T2 construct": "CaATP-G-actin was prepared from acetone dried powder derived from the back and leg muscles of rabbit by the method of Spudich and Watt; from tissue; host or cells: rabbit back and leg skeletal muscle (acetone dried powder)", "assay": "Effect on MgCl2- or NaCl-induced polymerization of MgATP-G-actin (pyrene fluorescence)", "format": "biochemical, rabbit", "details": "4 µM LL-37 or lysozyme added simultaneously with salt; 2 µM MgATP-G-actin, 10% pyrene labeled; 22°C", "description": "as §1, with “MgF-actin was polymerized from MgATP-G-actin or CaATP-G-actin by 30 min incubation with 2 mM MgCl2 at room temperature.” left out, “Molecular masses of skeletal actin, yeast cofilin, hen-lysozyme and LL-37 were assumed to be 42 kDa, 15.9 kDa, 14.3 kDa and 4.5 kDa respectively.” left out\n(§3) Labeling of Mg-F-actin at Cys-374 with pyrene maleimide was carried out according to Kouyama and Mihashi with some modifications. […] The concentration of modified actin was determined by the procedure of Bradford using unmodified actin as a standard. The extent of labeling, which was measured by using pyrene extinction coefficient E344 nm = 22000 cm^−1M^−1, was ∼100%. […]"}, "MgATP-G-actin [8]": {"biological_target": "T2, MgATP-G-actin", "assay": "Polymerization of MgATP-G-actin at low ionic strength (pyrene fluorescence)", "format": "biochemical, rabbit", "details": "2 µM MgATP-G-actin, 10% pyrene labeled; low ionic strength MgATP-G-buffer pH 7.4; 22°C; representative of three independent experiments", "description": "as §1, with “MgF-actin was polymerized from MgATP-G-actin or CaATP-G-actin by 30 min incubation with 2 mM MgCl2 at room temperature.” left out, “Molecular masses of skeletal actin, yeast cofilin, hen-lysozyme and LL-37 were assumed to be 42 kDa, 15.9 kDa, 14.3 kDa and 4.5 kDa respectively.” left out\nas §3"}, "Mg-F-actin [9]": {"biological_target": "T1, Mg-F-actin", "details": "lysozyme; ref [20]; cited from earlier work", "description": "Bundling kinetics of MgF-actin by LL-37, lysozyme and scrambled LL-37 were studied by increase in light scattering and the extent of bundling was determined using low speed centrifugation. The bundling of MgF-actin by LL-37 is also shown by electron microscopy (Figure S1). Mg-F-actin bundle formation was very fast both with LL-37 (Figure 3A) and lysozyme. The extent of bundling was dependent on the concentration and the nature of the polycation used (Figure 3B). At low ionic strength more than 50% of Mg-F-actin was bundled upon addition of lysozyme (1 µM) to Mg-F-actin (4 µM). A similar ..."}}, "note": "Like-named read-outs stand apart in the source and are kept apart here. No end group written: not given here."}
{"molecule": "[Cl-].[Na+]", "note": "[NaCl]", "values": [{"measurement": "rate and completeness of dissociation", "setting": "[1]", "value": "complete and very fast"}]}
{"molecule": "GLKLRFEFSKIKGEFLKTPEVRFRDIKLKDNRISVQR [Scrambled LL-37]", "values": [{"measurement": "MgF-actin bundled", "setting": "Mg-F-actin [2]; sLL-37 10 µM, 4 µM MgF-actin, low ionic strength", "value": "more than 60%"}]}
{"molecule": "Gelsolin", "values": [{"measurement": "dissociation of LL-37-induced actin filament bundles", "setting": "[3]", "value": "dissociate LL-37-induced actin filament bundles"}, {"measurement": "effect on sputum viscosity", "setting": "[4]", "value": "significantly reduce the viscosity of sputum"}, {"measurement": "effect on LL-37 antibacterial activity", "setting": "[5]", "value": "restore"}]}
{"molecule": "lysozyme: Hen lysozyme, antibacterial polycationic protein, 14.3 kDa, from Sigma", "values": [{"measurement": "EC50", "setting": "Mg-F-actin [2]; 4 µM Mg-F-actin, low ionic strength", "value": 1, "unit": "µM"}, {"measurement": "EC50", "setting": "Mg-F-actin [2]; 4 µM Mg-F-actin, physiological ionic strength (100 mM NaCl)", "value": 6, "unit": "µM"}, {"measurement": "Mg-F-actin bundled", "setting": "Mg-F-actin [2]; lysozyme 1 µM, 4 µM Mg-F-actin, low ionic strength, 20,800×g 8 min, SDS-PAGE densitometry, three independent experiments", "value": "more than 50%"}, {"measurement": "NaCl concentration at which bundle stability was decreased", "setting": "Mg-F-actin [6]", "value": 50, "unit": "mM"}, {"measurement": "NaCl concentration in which bundles completely dissociated", "setting": "Mg-F-actin [6]", "value": 150, "unit": "mM"}, {"measurement": "effect on polymerization induced by 2 mM MgCl2 or 100 mM NaCl", "setting": "MgATP-G-actin [7]", "value": "no inhibitory effect"}, {"measurement": "concentration giving polymerization of MgATP-G-actin", "setting": "MgATP-G-actin [8]", "value": 1, "unit": "µM"}, {"measurement": "rate of Mg-F-actin bundle formation", "setting": "Mg-F-actin [9]", "value": "very fast"}]}
